Laboratory results published in PMC8292354, “Molecular insights into the endoperoxide formation by Fe(II)/α-KG-dependent oxygenase NvfI” (Nature Communications, 2021).

Tests used:
NvfI = molecular target: T1, NvfI (Aspergillus novofumigatus, UniProt A0A2I1BSX0); experiment: X-ray crystal structure, […] Å; type: binding; settings: bidentate Fe ligand; binary (state I, monomer B) and ternary complex with asnovolin A (state III, monomer A)
T1 construct: recombinant from pET28a in E. coli Rosetta 2(DE3) pLysS, Ni-NTA purified, MonoQ and Superdex 200; monomer in solution, apparent 34 kDa

[1] = tested on: COC(=O)[C@@H]1C(=O)C(C)=C2O[C@@]3(C[C@]2(C)[C@H]1C)[C@@H](C)CC[C@H]1C(C)(C)OC(=O)CC[C@@]13C; experiment: purified protein; settings: 50 mM HEPES pH 7.5, 1 μM FeSO4, 500 μM ascorbate, 500 μM α-KG, 30 °C, 2 min, 0.1 μM enzyme

T1 sequence (A0A2I1BSX0 whole entry): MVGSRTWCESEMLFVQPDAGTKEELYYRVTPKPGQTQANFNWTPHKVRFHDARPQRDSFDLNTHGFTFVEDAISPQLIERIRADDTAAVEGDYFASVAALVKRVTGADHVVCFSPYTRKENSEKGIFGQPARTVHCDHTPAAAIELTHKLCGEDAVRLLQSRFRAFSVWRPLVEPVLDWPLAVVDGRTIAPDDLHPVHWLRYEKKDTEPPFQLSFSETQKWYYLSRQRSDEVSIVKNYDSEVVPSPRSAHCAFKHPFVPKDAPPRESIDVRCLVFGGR

| Compound | X-ray crystal structure, 1.9 Å (NvfI) | Km [1] | kcat [1] |
| --- | --- | --- | --- |
| O=C(O)CCC(=O)C(=O)O [α-KG] | octahedral iron-center is coordinated by the bidentate α-KG and a water molecule | – | – |
| NvfI (Aspergillus novofumigatus IBT 16806) | – | 25.9 ± 7.2 µM | 0.29 ± 0.04 s⁻¹ |
